The record followed here is US20200140868.

This series has as its target T1, Recombinant FANCE (149-536) wild-type, Q9HB96.
T1 chain: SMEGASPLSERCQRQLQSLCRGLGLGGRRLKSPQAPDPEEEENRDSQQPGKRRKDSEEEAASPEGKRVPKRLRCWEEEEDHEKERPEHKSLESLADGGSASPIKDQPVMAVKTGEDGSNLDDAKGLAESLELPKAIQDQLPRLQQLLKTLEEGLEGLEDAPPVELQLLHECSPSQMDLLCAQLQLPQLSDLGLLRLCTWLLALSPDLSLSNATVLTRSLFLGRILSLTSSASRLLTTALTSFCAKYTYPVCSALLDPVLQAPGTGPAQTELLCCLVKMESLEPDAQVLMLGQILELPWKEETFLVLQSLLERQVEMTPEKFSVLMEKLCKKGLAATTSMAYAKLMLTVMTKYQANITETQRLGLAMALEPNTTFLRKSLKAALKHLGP

B1: purified recombinant Chk1 (Upstate Technology) (protein)
chain: MAVPFVEDWDLVQTLGEGAYGEVQLAVNRVTEEAVAVKIVDMKRAVDCPENIKKEICINKMLNHENVVKFYGHRREGNIQYLFLEYCSGGELFDRIEPDIGMPEPDAQRFFHQLMAGVVYLHGIGITHRDIKPENLLLDERDNLKISDFGLATVFRYNNRERLLNKMCGTLPYVAPELLKRREFHAEPVDVWSCGIVLTAMLAGELPWDQPSDSCQEYSDWKEKKTYLNPWKKIDSAPLALLHKILVENPSARITIPDIKKDRWYNKPLKKGAKRPRVTSGGVSESPSGFSKHIQSNLDFSPVNSASSEENVKYSSSQPEPRTGLSLWDTSPSYIDKLVQGISFSQPTCPDHMLLNSQLLGTPGSSQNPWQRLVKRMTRFFTKLDADKSYQCLKETCEKLGYQWKKSCMNQVTISTTDRRNNKLIFKVNLLEMDDKILVDFRLSKGDGLEFKRHFLKIKGKLIDIVSSQKIWLPAT
With B1, the “in vitro kinase assay, Western blot with anti-pT346-FANCE and anti-pS374-FANCE” value is recorded as “the recombinant FANCE (rFANCEwt) protein phosphorylated by Chk1 in vitro”.
